Laboratory results as given in paper PMC5159498, “IQGAP1 Interaction with RHO Family Proteins Revisited” (The Journal of Biological Chemistry, 2016).

What was measured:
[1] = target: T1, IQGAP1 GRD1-RGCT S1443E (aa 877-1558) (human, UniProt P46940 877-1558, S1443E); test: fluorescence polarisation; IQGAP1 variant titrated to mGppNHp-bound RHO protein (1 μM); equilibrium Kd (eKd), quadratic fit; 30 mM Tris/HCl pH 7.5, 150 mM NaCl, 5 mM MgCl2, 3 mM DTT, 25 °C; conditions: both partners purified
T1 construct: human IQGAP1 aa 877-1558 with the phosphomimetic mutation S1443E (printed as S1143E in the methods, S1443E everywhere else), from the vector pET46 EkLIC; source: E. coli (pLysS BL21(DE3), CodonPlusRIL or BL21(Rosetta)), purified (Ni-NTA, gel filtration)
T1 sequence (looked up): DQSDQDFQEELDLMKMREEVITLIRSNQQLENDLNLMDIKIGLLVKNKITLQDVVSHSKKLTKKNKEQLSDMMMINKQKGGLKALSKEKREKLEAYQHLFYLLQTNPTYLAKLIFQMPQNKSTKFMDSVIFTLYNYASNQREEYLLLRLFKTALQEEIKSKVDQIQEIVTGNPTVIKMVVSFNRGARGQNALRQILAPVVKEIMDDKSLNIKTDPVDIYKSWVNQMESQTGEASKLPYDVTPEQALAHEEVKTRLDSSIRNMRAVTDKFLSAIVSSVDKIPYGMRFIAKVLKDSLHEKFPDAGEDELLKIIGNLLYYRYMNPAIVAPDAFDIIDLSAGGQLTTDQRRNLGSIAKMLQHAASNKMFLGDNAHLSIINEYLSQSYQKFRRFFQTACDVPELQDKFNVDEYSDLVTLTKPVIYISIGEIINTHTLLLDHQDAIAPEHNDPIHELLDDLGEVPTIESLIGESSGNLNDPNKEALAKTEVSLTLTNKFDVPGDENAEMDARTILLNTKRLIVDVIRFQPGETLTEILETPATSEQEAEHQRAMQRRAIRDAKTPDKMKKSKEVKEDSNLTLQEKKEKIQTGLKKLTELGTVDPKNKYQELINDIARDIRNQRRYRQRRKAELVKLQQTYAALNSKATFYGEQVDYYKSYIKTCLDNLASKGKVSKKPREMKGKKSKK

[2] = target: T2, IQGAP1 GRD1-RGCT S1441E (aa 877-1558) (human, UniProt P46940 877-1558, S1441E); test: as above; conditions: both partners purified
T2 construct: human IQGAP1 aa 877-1558 with the phosphomimetic mutation S1441E, from the vector pET46 EkLIC; source: E. coli (pLysS BL21(DE3), CodonPlusRIL or BL21(Rosetta)), purified (Ni-NTA, gel filtration)
T2 sequence (looked up): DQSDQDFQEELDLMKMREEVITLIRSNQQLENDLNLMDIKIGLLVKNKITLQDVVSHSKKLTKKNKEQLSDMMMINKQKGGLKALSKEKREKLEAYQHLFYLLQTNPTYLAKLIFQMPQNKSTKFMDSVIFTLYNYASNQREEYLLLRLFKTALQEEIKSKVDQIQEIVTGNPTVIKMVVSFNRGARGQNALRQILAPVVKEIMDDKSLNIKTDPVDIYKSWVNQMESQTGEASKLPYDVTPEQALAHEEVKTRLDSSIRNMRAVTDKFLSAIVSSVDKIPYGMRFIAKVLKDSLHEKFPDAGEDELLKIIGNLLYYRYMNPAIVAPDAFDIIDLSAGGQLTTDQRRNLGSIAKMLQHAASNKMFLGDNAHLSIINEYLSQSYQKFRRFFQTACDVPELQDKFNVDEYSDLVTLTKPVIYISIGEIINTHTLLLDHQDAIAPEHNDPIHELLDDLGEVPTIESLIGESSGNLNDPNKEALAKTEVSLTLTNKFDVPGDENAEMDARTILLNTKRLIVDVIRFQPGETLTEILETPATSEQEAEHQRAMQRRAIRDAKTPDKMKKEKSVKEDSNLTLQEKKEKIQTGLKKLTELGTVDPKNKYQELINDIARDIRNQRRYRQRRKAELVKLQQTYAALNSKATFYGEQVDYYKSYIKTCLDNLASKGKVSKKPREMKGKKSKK

Kd [1]: 16.3 µM
Kd [2]: 3.6 µM
B1: CDC42 (aa 1-178) (domain or fragment)
chain: not shown
notes: human CDC42, C-terminally truncated, aa 1-178; Loaded non-covalently with mGppNHp, tGppNHp, mGDP or non-fluorescent GppNHp; the nucleotide is named in the format of each assay; also called CDC42^WT; CDC42-mGppNHp
